The test system of one assay is HeLa cell. Nature of the assay: Screening Method 3: DNA breakage (Tunnel) in fixed, permeabilized HeLa cells treated with protein. The format is cell-based, human. Particulars: AChE protein 1 μg/μl, 1-2 hr 37° C., compared with BSA group. As for the experimental part:
HeLa cells were plated in 96-well plate with a 60% density, and after complete adherence, the cells were fixed with 4% PFA for 10 min, and permeabilized with 0.1% sodium citrate +0.1% Triton X-100 for 10 min, for twice. After PBS washing, cells were divided into five groups, as follows:
AChE protein group: HeLa cell, treated with AChE protein (1 μg/μl) after fixation and permeabilization treatment;
Cells of each group were incubated for 1-2 hr in 37° C.; Washed twice with PBS, and fixed with 4% PFA for 10 min. Tunnel reagent was added, incubated for 1 hr in 37° C.; and then washed three times with PBS, stained with Hoechest. Observation was performed by fluorescence microscope.

The test system of a further assay is DNA. Nature of the assay: Dissociation constant between protein and DNA (Bio Core T100 assay). The assay is classed as binding. The text has this:
AChE protein and DNase I presented similar binding curves.
Meanwhile, the inventors detected environment characteristics in which AChE cleaving DNA. DNase activity of AChE was Mg2+-dependent, while Ca2+ could only play a weak supporting role (FIG. 5a). In a relatively wide pH range of pH 7.0-10.0 (similar to in vivo pH environment during apoptosis), AChE can fully play its function of cleaving DNA (FIG. 5b).

Assay [1] has as its system plasmid DNA (pEGFP-C1 plasmid). Nature of the assay: In vitro DNase activity: cleavage of plasmid DNA by purified protein. The format is biochemical. Particulars: for cleavage of plasmid DNA from supercoil (SC) into Nick and Linear structures: cell free system, 37° C. As for the experimental part: D. The results of 1% agarose electrophoresis before which pEGFP-C1 plasmid DNA and Homo or Mus AChE protein (0, 0.5, 1 and 2 μg) were coincubated for 6 h. EcoR was used to indicate linear DNA. MK indicated molecular weight marker.
E. the plasmid splitting with increasing time of the incubation of pEGFP-C1 plasmid DNA (150 ng) and Homo or Mus AChE protein (1 μg)). The above experiment was repeated for 3 times.
G. Commercial AChE isolated from Ee1 was incubated in different doses with plasmid DNA, and two bovine serum albumins (BSA1, BSA2) purchased from different companies were used as control at the same time; after being incubated for 5 h, they were subjected to DNA gel electrophoresis.
H. Commercial AChE isolated from Ee1 was incubated with plasmid DNA for different durations, and two bovine serum albumins (BSA1, BSA2) purchased from different companies were used as control at the same time. They were then subjected to DNA gel electrophoresis.
B. The influence of pH value on AChE nuclease activity. Plasmid DNA was incubated with Homo AChE protein under different pH conditions for 3 h.
Purified plasmid DNA was used as substrate for detection. In the experiment of cleaving of plasmid DNA, 0.15 μg of plasmid DNA with a transfection-grade purity (pEGFP-C1 plasmid, Clotech) was added to 10 μl buffer system containing (5.0 mM Tris-HCl, PH 7.5; 2.5 mM CaCl2; 5.0 mM MgCl2). 1 μg (or an amount indicated in Examples) of purified AChE proteins of human or mouse origin (AChE 1-547AA corresponding to human; AChE1-548AA corresponding to mouse) was further added, and incubated in 37° C. Sampling at 6 h (or timepoints indicated in Examples).

B1: AChE (protein, listed as Homo Sapiens)
chain: MRPPQCLLHTPSLASPLLLLLLWLLGGGVGAEGREDAELLVTVRGGRLRGIRLKTPGGPVSAFLGIPFAEPPMGPRRFLPPEPKQPWSGVVDATTFQSVCYQYVDTLYPGFEGTEMWNPNRELSEDCLYLNVWTPYPRPTSPTPVLVWIYGGGFYSGASSLDVYDGRFLVQAERTVLVSMNYRVGAFGFLALPGSREAPGNVGLLDQRLALQWVQENVAAFGGDPTSVTLFGESAGAASVGMHLLSPPSRGLFHRAVLQSGAPNGPWATVGMGEARRRATQLAHLVGCPPGGTGGNDTELVACLRTRPAQVLVNHEWHVLPQESVFRFSFVPVVDGDFLSDTPEALINAGDFHGLQVLVGVVKDEGSYFLVYGAPGFSKDNESLISRAEFLAGVRVGVPQVSDLAAEAVVLHYTDWLHPEDPARLREALSDVVGDHNVVCPVAQLAGRLAAQGARVYAYVFEHRASTLSWPLWMGVPHGYEIEFIFGIPLDPSRNYTAEEKIFAQRLMRYWANFARTGDPNEPRDPKAPQWPPYTAGAQQYVSLDLRPLEVRRGLRAQACAFWNRFLPKLLSATDTLDEAERQWKAEFHRWSSYMVHWKNQFDHYSKQDRCSDL
The term Kd denotes the equilibrium constant for the complex coming apart. Regarding B1, in the assay with HeLa cell, the “intracellular DNA breakage” value was “obvious breakage”. Also, the “affinity for DNA relative to that of DNase I” value with DNA (from Kd values) is listed as “about 74%”. On DNA (software analysis of binding curves), this molecule returned a Kd of 1530 nM. Also, in assay [1] (Homo AChE protein, pH 5-6, 3 h), the “DNA cleaving activity at pH 5-6” value is “reduced slightly”. Besides, in assay [1] (Homo AChE protein, pH 7-10, 3 h), the “DNA cleaving activity at pH 7-10” value is recorded as “can effectively function to cleave DNA”.

B2: Homo AChE (protein)
chain: EGREDAELLVTVRGGRLRGIRLKTPGGPVSAFLGIPFAEPPMGPRRFLPPEPKQPWSGVVDATTFQSVCYQYVDTLYPGFEGTEMWNPNRELSEDCLYLNVWTPYPRPTSPTPVLVWIYGGGFYSGASSLDVYDGRFLVQAERTVLVSMNYRVGAFGFLALPGSREAPGNVGLLDQRLALQWVQENVAAFGGDPTSVTLFGESAGAASVGMHLLSPPSRGLFHRAVLQSGAPNGPWATVGMGEARRRATQLAHLVGCPPGGTGGNDTELVACLRTRPAQVLVNHEWHVLPQESVFRFSFVPVVDGDFLSDTPEALINAGDFHGLQVLVGVVKDEGSYFLVYGAPGFSKDNESLISRAEFLAGVRVGVPQVSDLAAEAVVLHYTDWLHPEDPARLREALSDVVGDHNVVCPVAQLAGRLAAQGARVYAYVFEHRASTLSWPLWMGVPHGYEIEFIFGIPLDPSRNYTAEEKIFAQRLMRYWANFARTGDPNEPRDPKAPQWPPYTAGAQQYVSLDLR
In the case of B2, the “cleavage of plasmid DNA from supercoil (SC) into Nick and Linear structures” value in assay [1] is on record as “effectively cleave plasmid DNA”.

B3: Mus AChE (protein)
chain: EGREDPQLLVRVRGGQLRGIRLKAPGGPVSAFLGIPFAEPPVGSRRFMPPEPKRPWSGVLDATTFQNVCYQYVDTLYPGFEGTEMWNPNRELSEDCLYLNVWTPYPRPASPTPVLIWIYGGGFYSGAASLDVYDGRFLAQVEGAVLVSMNYRVGTFGFLALPGSREAPGNVGLLDQRLALQWVQENIAAFGGDPMSVTLFGESAGAASVGMHILSLPSRSLFHRAVLQSGTPNGPWATVSAGEARRRATLLARLVGCPPGGAGGNDTELIACLRTRPAQDLVDHEWHVLPQESIFRFSFVPVVDGDFLSDTPEALINTGDFQDLQVLVGVVKDEGSYFLVYGVPGFSKDNESLISRAQFLAGVRIGVPQASDLAAEAVVLHYTDWLHPEDPTHLRDAMSAVVGDHNVVCPVAQLAGRLAAQGARVYAYIFEHRASTLTWPLWMGVPHGYEIEFIFGLPLDPSLNYTTEERIFAQRLMKYWTNFARTGDPNDPRDSKSPQWPPYTTAAQQYVSLNLKP
Turning to B3, the “cleavage of plasmid DNA from supercoil (SC) into Nick and Linear structures” value in assay [1] is reported as “effectively cleave plasmid DNA”.

(Values after patent US20140248254A1, “THE USE OF ACHE AS NUCLEASE” (priority 2011, published 2014).)
